Source: PMC12059018 (Nature Communications, 2025)

Target: T1, p53-ZF43 bait (UniProt P04637)
T1 construct: also called p53 bait; source: BHK-21, transfected, in cells
Assay: two-hybrid
Settings: partners not purified

T1 sequence (P04637 whole entry): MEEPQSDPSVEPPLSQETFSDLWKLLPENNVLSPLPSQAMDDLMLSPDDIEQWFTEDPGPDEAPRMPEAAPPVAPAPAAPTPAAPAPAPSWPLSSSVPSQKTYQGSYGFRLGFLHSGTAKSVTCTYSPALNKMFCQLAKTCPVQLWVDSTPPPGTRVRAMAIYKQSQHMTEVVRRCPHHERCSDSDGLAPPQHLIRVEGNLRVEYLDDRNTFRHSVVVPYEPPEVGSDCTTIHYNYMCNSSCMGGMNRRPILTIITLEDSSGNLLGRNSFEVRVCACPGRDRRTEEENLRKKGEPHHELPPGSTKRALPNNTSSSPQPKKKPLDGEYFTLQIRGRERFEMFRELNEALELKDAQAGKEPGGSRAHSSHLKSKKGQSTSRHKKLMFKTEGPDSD

B1: Nb139-VP64 (parental, NLS-containing fusion) (VHH)
VHH: QVQLQESGGGLVQAGGSLRLSCAASERTFSTYAMGWFRQAPGREREFLAQINWSGTTTYYAESVKDRTTISRDNAKNTVYLEMNNLNADDTGIYFCAAHPQRGWGSTLGWTYWGQGTQVTVSS
notes: also called Nb139[WT]; source: BHK-21, transfected, in cells
binding result: binds
